The labels stand for the following.
B1: UC antibody 7 (antibody, V domains shown)
VH: VQLVESGGGVVQPGRSLRLSCAASGFTFSSYGMHWVRQAPGKGLEWVAFISYDGINKYYADSVKGRFTISRDNSKDTLYLQMNSLRAEDTAVYYCAKVIPRIRGSGDKAGIKDYYYYGMDVWGQGTTVTVSS
VL: EIVLTQSPATLSLSPGERATLSCRASQSVSSYLAWYQQKPGQAPRLLIYDASNRATGIPARFSGSGSGTDFTLTISSLEPEDFAVYYCQQRSNWLTFGGGTKVEIK
notes: Human monoclonal IgG from a UC patient, expressed in CHO cells
B2: UC antibody 2 (antibody, V domains shown)
VH: EVQLVESGGGLVKPGGSLRVSCVVSGFTITNAWMSWVRQAPGKGLEWVGRSKSKTDGGTTDYIAPVKGRFTISRDDSKNTLYLEMNSLKTEDTAVYYCATDRPLKLRGRDYNYYVMDVWGQGTTVTVSS
VL: DIQMTQSPSSLSASVGDRVTITCRASQSIARSLNWYQQKPGKAPNLLIYAASTLQSGVPSRFSGSGSGTDFTLTIGSLQPEDFATYSCQQSSSSPLTFGGGTRVEIK
notes: as for B1
B3: UC antibody 5 (antibody, V domains shown)
VH: QVQLVQSGAEVKKPGASVKVSCKASGHTFSSFGISWVRQAPGQGLEWMGWISAYNGNTNSAQKFQGRVTMTTDTSTSTAYMELRSLRSDDTAVYYCARDRGFRGDTAMIKGGMDVWGQGTTVTVSS
VL: VLTQPPSVSVSPGQTASITCSGDKLGDKYACWYQQKSGQAPVLVIYQDSKRPSGIPERFSGSNSGNTATLTISGTQAMDEADYYCQAWDSSTALVFGGGTKLTVL
notes: as for B1
B4: PSC antibody 1 (antibody, V domains shown)
VH: B3 VH
VL: QSALTQPASVSGSPGQSITISCTGTSSDVGGYNYVSWYQQHPGKAPQLIIYDVSKRPSGVSNRFSGSRSGNTASLTISGLQAEDEADYYCSSYTSSSTYVFGTGTKVTVL
notes: Human monoclonal IgG from a PSC patient, expressed in CHO cells
B5: UC antibody 4 (antibody, V domains shown)
VH: B3 VH with H27Y
VL: SYELTQPPSVSVSPGQTARITCSGDALPKQYAYWYQQKPGQAPVLVIYKDSERPSGIPERFSGSSSGTMATLTISGAQVEDEGDYYCSSTDSNSQRVFGGGTKLTVL
notes: as for B1
B6: UC antibody 6 (antibody, V domains shown)
VH: B3 VH
VL: QSVLTQPPSVSGAPGQRVTISCTGSSSTIGANNDVHWYQQLPGTAPKLLIYGNKNRPSGVSDRFSGSKSGTSASLAITGLQAEDEADYYCQSYDSSLSDLYVFGTGTKVTVL
notes: as for B1
B7: UC antibody 8 (antibody, V domains shown)
VH: QVQLVESGGGVVQPGRSLRLSCAASGFTFSSYAMHWVRQAPGKGLEWVAFISYDGINKYYADSVKGRFTISRDNPKDTLYLQMNSLRAEDTAVYYCAKVIPRIRGSGDKAGIKDYYYYGMDVWGRGTTVTVSS
VL: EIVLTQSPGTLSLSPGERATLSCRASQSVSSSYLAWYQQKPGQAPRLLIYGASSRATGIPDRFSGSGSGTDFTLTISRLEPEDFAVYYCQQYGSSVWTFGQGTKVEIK
notes: as for B1
B8: UC antibody 9 (antibody, V domains shown)
VH: B7 VH with A33G, P75S, R125Q
VL: QSVLTQPPSVSAAPGQKVTISCSGSSSNIGNNYVSWYQQLPGTAPKLLIYDNNKRPSGIPDRFSGSKSGTSATLGITGLQTGDEADYYCGTWDSSLSAVVFGGGTKLTVL
notes: as for B1
B9: UC antibody 3 (antibody, V domains shown)
VH: QVQLVESGGGVVQPGRSLRVSCAASGFTFSIYGMHWVRQAPGKGLEWVAVISSDGTNQYYADSVKGRFTISRDNSNNTVYLQMNSLGGEDTAVYYCAKDRGRRGDSGWYRHFDYWGQGTLVTVSS
VL: B8 VL with I29N, L40V
notes: as for B1

Changes are numbered by the printed parent chain.

In the first experiment the target is T1, Biotinylated human integrin αvβ6 (ACROBiosystems, product number IT6-H82E4) (human, UniProt P06756 31-992; P18564 22-707, biotinylated (Avi tag at the C-terminus) ; Biotin on the Avi tag at the C-terminus of the αv chain; the tag is not in the letters.).
T1 construct: Bought heterodimer; also called biotinylated integrin αvβ6; not shown: basic tail on the β6 chain
T1 sequence (P06756 31-992 limits assumed, chain 1 of 2): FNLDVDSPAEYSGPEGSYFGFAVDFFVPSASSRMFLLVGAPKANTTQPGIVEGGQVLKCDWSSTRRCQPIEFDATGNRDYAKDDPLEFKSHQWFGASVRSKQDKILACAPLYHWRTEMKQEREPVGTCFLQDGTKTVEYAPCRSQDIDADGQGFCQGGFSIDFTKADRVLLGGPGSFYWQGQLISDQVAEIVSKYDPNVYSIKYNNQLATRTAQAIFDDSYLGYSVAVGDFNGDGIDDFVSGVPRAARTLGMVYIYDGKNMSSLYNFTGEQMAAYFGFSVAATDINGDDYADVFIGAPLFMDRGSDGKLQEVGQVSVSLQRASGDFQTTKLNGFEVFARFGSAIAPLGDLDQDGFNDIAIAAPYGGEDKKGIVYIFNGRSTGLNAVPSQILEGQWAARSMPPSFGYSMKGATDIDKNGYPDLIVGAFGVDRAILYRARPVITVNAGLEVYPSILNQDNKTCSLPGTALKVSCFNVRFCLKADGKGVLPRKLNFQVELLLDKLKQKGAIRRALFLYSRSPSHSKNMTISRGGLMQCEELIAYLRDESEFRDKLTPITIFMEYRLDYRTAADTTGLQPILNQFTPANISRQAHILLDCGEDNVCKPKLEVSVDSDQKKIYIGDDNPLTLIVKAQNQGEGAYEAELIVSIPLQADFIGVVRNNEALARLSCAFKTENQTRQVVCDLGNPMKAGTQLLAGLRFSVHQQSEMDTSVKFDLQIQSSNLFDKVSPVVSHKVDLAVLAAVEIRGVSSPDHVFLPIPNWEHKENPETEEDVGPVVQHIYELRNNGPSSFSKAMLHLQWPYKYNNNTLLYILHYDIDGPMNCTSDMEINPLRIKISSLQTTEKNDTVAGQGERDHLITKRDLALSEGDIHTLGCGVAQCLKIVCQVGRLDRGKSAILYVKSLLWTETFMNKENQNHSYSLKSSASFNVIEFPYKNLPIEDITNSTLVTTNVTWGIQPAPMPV
T1 sequence (P18564 22-707 limits assumed, chain 2 of 2): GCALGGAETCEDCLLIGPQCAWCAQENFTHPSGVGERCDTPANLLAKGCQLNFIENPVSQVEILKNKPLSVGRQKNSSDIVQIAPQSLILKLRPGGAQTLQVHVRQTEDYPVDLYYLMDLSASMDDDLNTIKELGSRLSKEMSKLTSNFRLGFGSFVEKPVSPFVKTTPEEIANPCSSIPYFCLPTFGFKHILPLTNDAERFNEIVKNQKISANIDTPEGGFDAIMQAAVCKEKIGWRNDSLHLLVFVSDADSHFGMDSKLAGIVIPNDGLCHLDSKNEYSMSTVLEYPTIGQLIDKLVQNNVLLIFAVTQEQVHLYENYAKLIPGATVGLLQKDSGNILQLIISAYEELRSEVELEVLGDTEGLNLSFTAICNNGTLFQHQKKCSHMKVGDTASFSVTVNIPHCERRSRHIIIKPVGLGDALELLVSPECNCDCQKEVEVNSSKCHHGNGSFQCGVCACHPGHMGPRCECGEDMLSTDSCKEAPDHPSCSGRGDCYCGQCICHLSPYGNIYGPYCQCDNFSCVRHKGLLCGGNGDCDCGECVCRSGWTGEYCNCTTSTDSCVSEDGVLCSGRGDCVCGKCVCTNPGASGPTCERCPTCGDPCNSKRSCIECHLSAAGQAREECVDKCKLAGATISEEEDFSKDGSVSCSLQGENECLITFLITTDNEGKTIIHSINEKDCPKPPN
In words: BLI (Octet RED96), biotinylated integrin αvβ6 on biosensor, antibody in solution. On the procedure: Next, the binding affinity of the obtained anti-integrin αvβ6 monoclonal antibodies derived from UC or PSC patients was determined. The KD value was measured by biolayer interferometry using Octet RED96 (Sartorius). A 100 nM solution of the antibody, and serially diluted solutions of biotinylated integrin αvβ6 protein in the range of 200 to 6.25 nM were prepared using a buffer containing 20 mM Tris, 150 mM NaCl, 1 mM CaCl₂, 1 mM MgCl₂, 0.1% human serum albumin (014-27604; Fujifilm Wako Pure Chemical Industries, Ltd.) and 0.02% Tween 20 (1610781; Bio-Rad), and added to a 96-well plate (Greiner; 655209) at 200 μL/well. The biotinylated integrin αvβ6 was allowed to bind for 5 minutes to a biosensor (18-5136; Sartorius) soaked in the buffer. After washing of the biosensor, the biosensor was immersed in each antibody solution for 5 minutes (binding reaction). Then, the sensor was immersed in the buffer solution for 1 minute (dissociation reaction). The binding dissociation constant (KD value) between “integrin αvβ6-each monoclonal antibody” was determined using the analysis software (Octet BLI Analysis) attached to the device.
B1 came in with a dissociation constant Kd of 5.18 nM.
Still for that read-out and setting: next, B2: 1.95 nM; B3: 8.25 nM.
Consider B4, for which the equilibrium dissociation constant (Kd) was 8.91 nM.
Molecule B5 had a Kd of 3.15 nM.
For B6, the affinity, expressed as Kd, was 20.8 nM.
B7 showed a Kd of 10.6 nM.
In turn, B8 yielded a Kd of 5.96 nM.
Still for that read-out and setting: for B9 the value was 15 nM.

For a further experiment, the target named is T2, human integrin αvβ6 (ACROBiosystems, product number IT6-H52E1) (human, UniProt P06756 31-992; P18564 22-707).
T2 construct: also called histidine-tagged integrin αvβ6; histidine-tagged extracellular domain protein of integrin αvβ6; not shown: linker and basic tail on the β6 chain
T2 sequence (P06756 31-992 limits assumed, chain 1 of 2): as the sequence (P06756 31-992 limits assumed, chain 1 of 2) above
T2 sequence (P18564 22-707 limits assumed, chain 2 of 2): as the sequence (P18564 22-707 limits assumed, chain 2 of 2) above
In words: competition ELISA: integrin αvβ6 coated, peptide RGDS 0-100 µg/mL added together with PSC patient IgG 1:100 (competitor); bound human IgG detected (A450). On the procedure: A microtiter plate was coated with 100 μL/well of 2 μg/mL integrin αvβ6 overnight at 4° C., and then blocked. Peptide RGDS (SEQ ID NO: 9: Arg-Gly-Asp-Ser) or RGES (SEQ ID NO: 10: Arg-Gly-Glu-Ser) as RGD motif or RGE motif (control) was added together with 100 μL of patient-derived IgG dilution (1:100) to the plate, and the plate was incubated at room temperature for 60 minutes. After washing, 100 μl/well of an HRP-labeled anti-human IgG antibody (50,000-fold dilution; ab6759; Abcam) was added to the plate and the plate was incubated at room temperature for 60 minutes. After washing, the plate was incubated with 3,3′,5,5′-tetramethylbenzidine for 7 minutes, and an absorbance density (OD value) at 450 nm was measured to detect human IgG bound to integrin αvβ6 on the solid phase.
In the case of RGDS (also called RGD peptide; RGD motif) [Peptide RGDS], the binding result is “binds”.

These data come from patent US20260199576A1 (KYOTO UNIVERSITY, published 2026).
